T1: human CD2 (human, UniProt P06729)
T1 chain: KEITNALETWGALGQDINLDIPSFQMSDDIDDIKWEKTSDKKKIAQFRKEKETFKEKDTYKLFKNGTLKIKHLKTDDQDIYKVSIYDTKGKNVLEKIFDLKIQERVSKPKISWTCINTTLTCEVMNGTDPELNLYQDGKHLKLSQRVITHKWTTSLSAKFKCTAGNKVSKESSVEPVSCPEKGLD

B1: DARPin #1 (designed binder)
chain: DLGVKLLHAAQTGQDDEVRILLAAGADVNAKDWLGVTPLHYAAWIGHLEIVEVLLKAGADVNAKDWQGQTPLHLAAQWGHLEIVEVLLKAGADVNAQDNHGNTPADLAAEVGHEDIAEVLQKAA
B2: DARPin #2 (designed binder)
chain: DLGKKLLQAARAGQLDEVRELLKAGADVNAKDQHGFTPLHVAAKEGHLEIVEVLLKAGADVNAKDSFGETPLHLAAEHGHLEIVEVLLKAGADVNAKDQSGWTPLHLAAWAGHLEIVEVLLKAGADVNAQDKSGKTPADLAARAGHQDIAEVLQKAA
B3: DARPin #15 (designed binder)
chain: DLGDKLLEAAQYGQDDEVRILLAAGADVNAKDNSGSTPLHLAAQHGHLEIVEVLLKAGADVNAKDWWGWTPLHEAATTGHLEIVEVLLKAGADVNAQDKSGKTPADLAAHAGHEDIAEVLQKAA
B4: DARPin #3 (designed binder)
chain: DLGKKLLQAARAGQLDEVRELLKAGADVNAKDQQGVTPLHIAAYGHLEIVEVLLKAGADVNAKDLQGETPLHVAAWAGHLEIVEVLLKAGADVNAKDKHGITPLHLAAKKGHLEIVEVLLKAGAEVNAQDKSGKTPADLAARAGHQDIAEVLQKAA

Target: T1, human CD2
Assay: SPR

Binder	Kd
B1	0.00328 µM
B2	0.382 µM
B3	0.0159 µM
B4	0.048 µM

Source: patent publication US20260374869 (published 2026)
